From patent publication US20240092889A1 (Chugai, published 2024)

B5: recombinant human C1r2s2 tetramer (other)
chain 1: EPTMYGEILSPNYPQAYPSEVEKSWDIEVPEGYGIHLYFTHLDIELSENCAYDSVQIISGDTEEGRLCGQRSSNNPHSPIVEEFQVPYNKLQVIFKSDFSNEERFTGFAAYYVATDINECTDFVDVPCSHFCNNFIGGYFCSCPPEYFLHDDMKNCGVNCSGDVFTALIGEIASPNYPKPYPENSRCEYQIRLEKGFQVVVTLRREDFDVEAADSAGNCLDSLVFVAGDRQFGPYCGHGFPGPLNIETKSNALDIIFQTDLTGQKKGWKLRYHGDPMPCPKEDTPNSVWEPAKAKYVFRDVVQITCLDGFEVVEGRVGATSFYSTCQSNGKWSNSKLKCQPVDCGIPESIENGKVEDPESTLFGSVIRYTCEEPYYYMENGGGGEYHCAGNGSWVNEVLGPELPKCVPVCGVPREPFEEKQRIIGGSDADIKNFPWQVFFDNPWAGGALINEYWVLTAAHVVEGNREPTMYVGSTSVQTSRLAKSKMLTPEHVFIHPGWKLLEVPEGRTNFDNDIALVRLKDPVKMGPTVSPICLPGTSSDYNLMDGDLGLISGWGRTEKRDRAVRLKAARLPVAPLRKCKEVKVEKPTADAEAYVFTPNMICAGGEKGMDSCKGDSGGAFAVQDPNDKTKFYAAGLVSWGPQCGTYGLYTRVKNYVDWIMKTMQENSTPRED
chain 2: SIPIPQKLFGEVTSPLFPKPYPNNFETTTVITVPTGYRVKLVFQQFDLEPSEGCFYDYVKISADKKSLGRFCGQLGSPLGNPPGKKEFMSQGNKMLLTFHTDFSNEENGTIMFYKGFLAYYQAVDLDECASRSKLGEEDPQPQCQHLCHNYVGGYFCSCRPGYELQEDRHSCQAECSSELYTEASGYISSLEYPRSYPPDLRCNYSIRVERGLTLHLKFLEPFDIDDHQQVHCPYDQLQIYANGKNIGEFCGKQRPPDLDTSSNAVDLLFFTDESGDSRGWKLRYTTEIIKCPQPKTLDEFTIIQNLQPQYQFRDYFIATCKQGYQLIEGNQVLHSFTAVCQDDGTWHRAMPRCKIKDCGQPRNLPNGDFRYTTTMGVNTYKARIQYYCHEPYYKMQTRAGSRESEQGVYTCTAQGIWKNEQKGEKIPRCLPVCGKPVNPVEQRQQIIGGQKAKMGNFPWQVFTNIHGRGGGALLGDRWILTAAHTLYPKEHEAQSNASLDVFLGHTNVEELMKLGNHPIRRVSVHPDYRQDESYNFEGDIALLELENSVTLGPNLLPICLPDNDTFYDLGLMGYVSGFGVMEEKIAHDLRFVRLPVANPQACENWLRGKNRMDVFSQNMFCAGHPSLKQDACQGDAGGVFAVRDPNTDRWVATGIVSWGIGCSRGYGFYTKVLNYVDWIKKEMEEED
notes: C1s and C1r co-expressed in HEK293/FreeStyle 293-F and purified from conditioned medium

How the values were obtained:
[1] = target: B5; experiment: SPR (BIACORE T200), 37 C, Ab captured via anti-human Ig kappa, human C1r2s2 as analyte, pH 5.8
Method: (§1) KD (dissociation constant) value of each samples at pH 7.4 and pH 5.8 are determined at 37 degrees C. using BIACORE® T200 instrument (GE Healthcare). Purified Mouse Anti-Human Ig kappa Light Chain (GE Healthcare) can be immobilized onto all flow cells of a CMS sensor chip using an amine coupling kit (GE Healthcare). 20 mM ACES, 150 mM NaCl, 1.2 mM CaCl2, 1 mg/mL BSA (IgG-free), 1 mg/mL CMD, 0.05% Tween® 20, 0.005% NaN3, pH 7.4 or pH 5.8 buffer were used as running buffer. Each antibody can be captured onto the sensor surface by Anti-Human Ig kappa Light chain. Antibody capture levels are aimed at 50 resonance unit (RU). […] Sensor surface is regenerated each cycle with, e.g., Glycine pH 2.0 (GE Healthcare). KD values were obtained using BIACORE® T200 Evaluation software, version 2.0 (GE Healthcare).

[2] = target: B5; experiment: SPR (BIACORE T200), 37 C, ratio of KD at pH 5.8 to KD at pH 7.4
Method: as §1

[3] = target: B5; experiment: SPR (BIACORE T200), 37 C, Ab captured via anti-human Ig kappa, human C1r2s2 as analyte, pH 7.4
Method: as §1

[4] = target: B5; experiment: SPR (BIACORE), antibody captured by ProL, human C1r2s2 injected at 100 nM, pH 7.4, 37 C; y axis Response/Capture
Method: Analysis of interaction between antibody variants and the human C1r2s2 prepared as mentioned above was carried out at pH7.4, at 37 degrees C. using BIACORE® T200 instrument (GE Healthcare) or BIACORE® 4000 (GE Healthcare). ProL (BioVision) was immobilized onto a CM4 sensorchip using amine coupling kit (GE Healthcare) according to the recommended settings by GE Healthcare. Antibodies and analytes were diluted into the respective running buffers, ACES pH7.4 (20 mM ACES (N-(2-Acetamido)-2-aminoethanesulfonic acid), 150 mM NaCl, 1.2 mM CaCl2, 1 mg/ml bovine serum albumin (BSA), 1 mg/ml CMD (CM-Dextran sodium salt), 0.05% Tween® 20 (polysorbate 20), 0.005 w/v % NaN3). Each antibody was captured onto the sensor surface by ProL. Antibody capture levels were aimed at 200 resonance units (RU). Then, recombinant human C1r2s2 was injected at concentrations of 25 and 100 nM followed by dissociation at pH7.4. The surface was regenerated using 10 mM Glycine-HCl, pH1.5.

[5] = target: T1, native human C1q (CompTech) (human, UniProt P02745 23-245; P02746 28-253; P02747 29-245); experiment: SPR (BIACORE T200), human C1r2s2 captured by immobilised IPN009VH2Vk3-SG1148, native human C1q injected at about 100 nM, pH 7.4, 37 C
T1 construct: the subunit make-up A/B/C is from general knowledge
Description: Recombinant human C1r2s2 tetramer was first captured onto the sensor surface by the anti-C1r2s2 antibody. The capture levels were aimed at 200 resonance unit (RU). […] The sensor surface was regenerated each cycle with 3 M MgCl2. Sensorgrams were obtained using BIACORE® T200 Evaluation software, version 2.0 (GE Healthcare). […] For comparison of these sensorgrams, binging response of C1r2s2 was normalized as 100 RU. […] For comparison of these sensorgrams, baseline (before injecting antibodies) was adjusted to 0 RU.

T1 sequence (P02745 23-245 limits assumed, chain 1 of 3): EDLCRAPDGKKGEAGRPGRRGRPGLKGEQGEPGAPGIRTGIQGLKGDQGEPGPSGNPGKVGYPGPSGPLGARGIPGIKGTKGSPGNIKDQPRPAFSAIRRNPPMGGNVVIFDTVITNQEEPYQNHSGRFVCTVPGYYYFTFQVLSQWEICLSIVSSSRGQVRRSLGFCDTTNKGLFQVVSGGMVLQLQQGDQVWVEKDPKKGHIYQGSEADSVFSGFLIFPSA
T1 sequence (P02746 28-253 limits assumed, chain 2 of 3): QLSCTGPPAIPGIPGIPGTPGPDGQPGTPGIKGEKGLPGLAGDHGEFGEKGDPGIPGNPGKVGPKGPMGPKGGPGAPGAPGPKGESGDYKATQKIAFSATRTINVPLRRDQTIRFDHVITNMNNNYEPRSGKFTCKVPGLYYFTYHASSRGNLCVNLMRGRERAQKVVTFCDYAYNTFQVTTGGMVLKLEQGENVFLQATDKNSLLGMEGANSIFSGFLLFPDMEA
T1 sequence (P02747 29-245 limits assumed, chain 3 of 3): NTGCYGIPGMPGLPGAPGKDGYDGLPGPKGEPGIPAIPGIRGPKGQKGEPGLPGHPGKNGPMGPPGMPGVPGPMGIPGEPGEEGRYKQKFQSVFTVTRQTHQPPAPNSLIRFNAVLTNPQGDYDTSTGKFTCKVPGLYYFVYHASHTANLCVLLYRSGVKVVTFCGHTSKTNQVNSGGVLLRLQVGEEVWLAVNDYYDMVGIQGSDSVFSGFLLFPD

B1: COS0637temp-TT91R (antibody)
heavy: QVQLVESGGGVVQPGRSLRLSCAASGFTFSAYAMNWIRQPPGKGLEWIGLIYGSGSTFYASWAKGRVTISVDTSKNQFSLKLSSVTAADTAVYYCARGRSVNYNSDFHLWGQGTLVTVSSASTKGPSVFPLAPSSKSTSGGTAALGCLVKDYFPEPVTVSWNSGALTSGVHTFPAVLQSSGLYSLSSVVTVPSSSLGTQTYICNVNHKPSNTKVDKRVEPKSCDKTHTCPPCPAPEYLGGDSVFLFPPKPKDVLMISRTPEVTCVVIDVSHEDPEVKFNWYVDGVEVHNAKTKPREEQYNSTYRVVSVLPVLHRDWLNGKEYKCKVSNKALPKPIEKTISKAKGQRREPQVYTLPPSREEMTKNQVSLTCLVKGFYPSDIAVEWESNGQPENNYKTTPPVLDSDGSFFLYSKLTVDKSRWQQGNVFSCSVLHEALHAHTTRKELSLSP
light: DIQMTQSPSSLSASVGDRVTITCQASQSLHDKKNLAWYQQKPGQPPKLLIYGASTLESGVPSRFSGSGSGTDFTLTISSLQPEDFATYYCQGEFSCSSADCNTFGQGTKVEIKRTVAAPSVFIFPPSDEQLKSGTASVVCLLNNFYPREAKVQWKVDNALQSGNSQESVTEQDSKDSTYSLSSTLTLSKADYEKHKVYACEVTHQGLSSPVTKSFNRGEC
notes: COS0637h with K101H in HCDR3; CH TT91R, CL SK1
Kd [1]: 6.39 µM | KD (pH 5.8)/KD (pH 7.4) [2]: 116 | Kd [3]: 0.055 µM

B2: AL0737 (antibody, human IgG1, kappa, V domains shown)
VH: QVQLVESGGGVVQPGRSLRLSCAASGFTFSAYAMNWIRQPPGKGLEWIGLIYGSGSTFYASWAKGRVTISVDTSKNQFSLKLSSVTAADTAVYYCARGRSVNYNSDFHLWGQGTLVTVSS
VL: DIQMTQSPSSLSASVGDRVTITCQASQSLHDKKNLAWYQQKPGQPPKLLIYGASTLESGVPSRFSGSGSGTDFTLTISSLQPEDFATYYCQGEFSWSSADLNTFGQGTKVEIKR
notes: COS0637temp with VL C94W/C95dL (Kabat), already in the VL entry
binding result [4]: binds

B3: AL0744 (antibody, human IgG1, kappa, V domains shown)
VH: QVQLVESGGGVVQPGRSLRLSCAASGFTFSAYAMNWIRQPPGKGLEWIGLIYGSGSTFYASWAKGRVTISVDTSKNQFSLKLSSVTAADTAVYYCARGRSVNYNSDFHLWGQGTLVTVSS
VL: DIQMTQSPSSLSASVGDRVTITCQASQSLHDKKNLAWYQQKPGQPPKLLIYGASTLESGVPSRFSGSGSGTDFTLTISSLQPEDFATYYCQGEFSWSSADMNTFGQGTKVEIKR
notes: COS0637temp with VL C94W/C95dM (Kabat), already in the VL entry
binding result [4]: binds

B4: AL0743 (antibody, human IgG1, kappa, V domains shown)
VH: QVQLVESGGGVVQPGRSLRLSCAASGFTFSAYAMNWIRQPPGKGLEWIGLIYGSGSTFYASWAKGRVTISVDTSKNQFSLKLSSVTAADTAVYYCARGRSVNYNSDFHLWGQGTLVTVSS
VL: DIQMTQSPSSLSASVGDRVTITCQASQSLHDKKNLAWYQQKPGQPPKLLIYGASTLESGVPSRFSGSGSGTDFTLTISSLQPEDFATYYCQGEFSYSSADLNTFGQGTKVEIKR
notes: COS0637temp with VL C94Y/C95dL (Kabat), already in the VL entry; template for further optimization
binding result [4]: binds

B5
binding result [5]: binds
